# Reference: the nanobody polyreactivity screen of Harvey et al. (2022)
# Experiment: yeast display, Sf9 membrane polyspecificity reagent, FACS + sequencing; frameworks hold sequencing errors
# Summary of the method: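 Nanobodies from a synthetic yeast display library (Saccharomyces cerevisiae BJ5465), induced 36–48 hours with galactose, were stained 1 hour at 4 °C with 10% biotinylated, detergent-solubilized Sf9 membrane reagent, enriched on streptavidin microbeads, then FACS-sorted. Anti-HA (expression) and streptavidin (reagent binding) fluorescence set low and high (top ~1%) gates. Polyreactivity labels come from the gate of origin. Genes were colony-PCR amplified, MiSeq 2 × 250 sequenced and filtered by CDR length.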
row,Sequence,polyreactivity (PSR sort gate)
1,QVQLVESGGGLVQAGGSLRLSCAASGYIFVKNAMGWYRQAPGKERELVAAISTRGGRTYYADSVKGRFTISRDNAKNTVYLQMNSLKPEDTAVYYCAAVHQTSYYDANSYGYWGQGTQVTVSS,high polyreactivity
2,QVQLVESGGGLVQAGGSLRLSCAASGSIFWRYDMGWLDRRLGKKGSSLPLLLVLVTTRTTQTPVKGRFTISRDNAKNTVYLQMNSLKPEDTAVYYCAADLRASGLKYEYWGQGTQVTVSS,low polyreactivity
3,QVQLVETGGGLVQAGGRLRLSCAASGSTFGSYAMGWYRQAPGKERELVATITESDGTTYYADSVKGSFTISRDNAKNTVYLQMNSLKREDTAVYYCAANYSGDRKRYWPGDTDDYWGQGTQVTVSS,high polyreactivity
4,QVQLVESGGGLVQAGGSLRLSSAASGNTFRHYAMGRYRQAPGKERELVAAISYSGGSTYYADSVKGRFTISRDNAKNTVYLQMNSLKPEDTAVYYCAAYSYASYGVSGYYYWGQGTQVTVSS,high polyreactivity
5,QVQLVESGGGLVLAGGSLRLSCAASGSTFFTNVMGWNRQAPGKERELVASITSGGSTNYADSVKGRFTITRDNAQNTVYLQMNSLKPEDTAVYYCAAVTRTITIYELDSWGQGTQVTVSS,low polyreactivity
6,QVQHVESAGGLVQAGGSLRLSCPASGRTINRNAMGWYRQAPGKERELVAAISWSGGRTYYADSVKGRFTISRDTAKNTVYLQMTSLKPEDTAVFSCAAPGNKYWGQGTQVTVSS,high polyreactivity
7,QVQLVESGGGLVQAGGSLRLSCAASGSIFTSNVMGWYRPAPGKERELVAAITITGTTNYADSVKGRFTISRDNAKNTVYLQMNSLIPVDTAVYYCAKDPVDLSPADWRADYDYWGQGTQVTVSS,low polyreactivity
8,QVQLVESGGGLVQAGGSLRLSCAASGRIFNWYAMGWYRQAPGKERELVARISSGDITSYADSVKGRFTISRDNAKNTVYLQMNRLKPEDTAVYYCDARQWFLYDYWGQGTQVTVSS,low polyreactivity
9,QVQLVESVGGLVQAGGSLSLSCAASGRMLVRNAMGWYRQAAGKERELVAVIRWSGGRTSYADSVKGRFTISRDNAKNTVYLQMNSLKPEDTAVYYCNKGGSYPTSNYKSYWVGVDYCGQGTQVTVSS,low polyreactivity
10,QVQLLESGGGLVQAGGSLRLSCAASGRTFHFNAMGWYRKAPWKERELVAAITNSGGRTSYADSVKGRFTISRDNAKNTVYLQMNSLKPEDTAVYYCNVEVTYSSGKYDYWGQGTQVTVSS,low polyreactivity
11,QVQLVESGGGLVQAGGSLRLSCAASGSIFHWYVMGWYRQAPGKERELVASISWSSGSTYADSVKGRFTISRDNGKNTVYLQMNSLKPEDTAVYFCNAKTYYPPFGYWGQGTQVTVSS,low polyreactivity
12,QVQLVESGGALHQAGGSLRLNCAASGRTFGANAMGWYRQAPGKERELVAAISSSDDSTYYADSVKGRFTISRDNAKKTVYLQMNSLKPEDTAVYYCAAEDVYRQLDYWGQGTQVTVSS,low polyreactivity
13,QVQLVESGGGLVQAGGSLRLSCAASGIIFPAYAMGWYRQARGKERELVAAITSRGGSTYYADSVKGRFTISRDNAKNTVYLQMNSLKPEDTAVYYCNAAALADYDYWGQGTQVTVSS,low polyreactivity
14,QVQLVESGGCLVQAGGSLRLSCAASGFTFYWYTMGWYRQAPGKERELVAAISRSGGDTDYADSVKGRFTISRDTAKNTVYLQMDSLQPEDTAVYYCNAGYFITHNYKYDYGGQGTQVTVSS,low polyreactivity
15,QVQLVESGGGLVQAGGSLRLSCAASGITFGANAMGWYRQAPGKERELVADITWSGGDTYYADSVKGRFTISRDNAKNTVYLQMNSLKPEDTAVYYCNALQPGLGSPLGEYDYWGQGTQVTVSS,low polyreactivity
16,QVQLVESGGGLVQAGGSLRLSCAASGRNLQQYVMGWYRQAPGKERELVAAITRGGRTNYADSVKGRFTISRDYAKNTVYLLMNSLKQEDTAVYYCKTRYPSRVVAWLDYWGQGTQVNVSS,low polyreactivity
17,QVQLVESGGGLVQAGGSLRLSCAASGYTFWYNAMGWYIPAPGKERELVAAIRSSGARTYYADSVKGRFTISRDNAKNTVYLQMNSLKPEDTAVYYCAASLRSGGRSHYYWGQGTQVTVSS,high polyreactivity
18,QVQLVESGGGLVLAGRSLRLICAASGSIFVYNAMGWYRQAPGKERELVAAISWSGGRTYYADSVKGRFTISRDNAKNTVYLQMNSLKPEDTAVYYCAALYTLRGYYYGTEYDYWGQGTQVTVSS,high polyreactivity
19,QVQLEESGGGLVQAGGSLRLSCAASGRIFTWYTMGWYRQAPGKEREFVAAITRSGTSTYYADSVKGRFTISRDNAKNTVYLQMNSLKPEDTAVYYCAAGKPRSKYWYDYWGQGTQVTVSS,high polyreactivity
20,QVQLVESGGGLVQAGGSLRLSCAASGSTFGSYAMGWYRHAPGKERELVAAINGGSSTNYADSVKGRFTISRDNAKNTVYLQMNSLKPEDTAVYYCNATETHRLYDSWGQGTQVTVSS,low polyreactivity
21,QVQLVESGGGLVQAGGSLRLSCDASGNTFGSYAMGWYGQAPGKEREVVASISGGGSTNYADSVKGRFTISRDNATNTVYLQMNSLKPEDTAVYDCAPRYYYRYYWRQGTQVTVSS,low polyreactivity
22,QVQLVESGGGLVQAGGSLRLSCAASGRIFNMYAMGWYRQAPGKERELVAAISVSGTRTYYADSVKGRFTISRDNAKNTVYLQMNSLKPEDTAVYYCAADSYGGVWSEHMYYWGQGTQVTVSS,low polyreactivity

row,Sequence,polyreactivity (PSR sort gate)
1,QVQLVESGGGLVQAGGSLRLSCAASGSTFRHNAMGRYRPAPGKERELVAAITRSGGRTFYADSVKGRFTISRDNAKNTVYLQMNSLKPEDTAVYYCAAERITPYDSSSAYDYWGQGTQVTVSS,low polyreactivity
2,QVQLVESGGGLVQAGGSLRLSCAASGIIFEYYTIGWYRQATGKERELVASITYDGDSTYYADSVKGRFTISRDNAKNTVYLQMNSLKPEDTAVYYCAADYYSVYSSFGHYYWGQGTQVTVSS,low polyreactivity
3,QVQLVESGGGLVQAGGSLRLSCAASGYTFATYTMGWYRQAPGKERELVAAITGGGGSTSYADSVKGRFTISRDNAKNTVYLQMNSLKLEDTAVYYCNAGISVDYSLEKYDYWGQGTQVTVSS,low polyreactivity
4,QVQLVESGGGLVQAGGSLRLSCAASGSTFQYYAMGWYRQAPGKERELVASISLSGTSTYYADSVKGRFTISRDNAKNTVYLQMNSLKPEDTAVYYCAADIVPWWASFLYDGEDYWGQGTQVTVSS,low polyreactivity
5,QVQLVESGGGLVQAGGSLRLSCAASGIILYYYAMGWYRQAPGKERELVAAISSGGNTYYADSVKGRFTISRDNAKNTVYLQMYSLKPEDTAVYYCAAVTVIGGEYDYWGQGTQVTVSS,low polyreactivity
6,QVQLVESGGGIVQAGGSLRLSCAASGRVFTYYAMGWYRQAPGKERELVAAISSGGNTYYADSVKGRFTISRDNAKNTVFLQMNSLKPEDTAVYYCAAAGRPRYESNYWGQGTQVSVSS,high polyreactivity
7,QVQLVESGGGLVQAGGSLRLSCAASGRTLRLYAMGWYRPAPGKERELVASITGRGGSTYYADSVKGRFTISRDNAKNTVYLQMNSLKPEDTAVYYCAKLPLSTAMGYWGQGTQVTVSS,low polyreactivity
8,QVQLVESGGGLVQAGGSLRLSCAASGFIFATYAMGWYRQAPGKERELVAAINRGGSTYYADSVKGRFTISRDNAKNTVYLQMNSLKPEDTAVYYCAAAKRYPTSTWYGYWGQGTQVTVSS,high polyreactivity
9,QVQLVESGGGLVQAGGSLRLICAASGFTFFAYAMGWYRQAPGKERELVAGISRSGGRTYYADSVKGRFTISRDNAKNTVYLQMNSLKPEDTAVYYCAAGIPVTSRFYGMDWGQGTQVTVSS,high polyreactivity
10,QVQLVESGGGLVHAGGSLRLSCAASGIIFRSYAMGWYRQAPGKERELVAGISLSGGSTYYADSVKGLFTISRDNSKNTVYLQMKSLKPEDTAVYYCATRNHYFRALRYGYWGQGTQVTVSS,high polyreactivity
11,QVQLVESGGGLVQAGGSLSLSCDASGSIIQGYAMGWYRQAPGKERELVAAISWSGTSTYYADSVKGRFTISRDNAKNTVYLQMNSLKPEDTEVYYCATDYYYYTAEYEYWGQGTQVTVSS,high polyreactivity
12,QVQLVESGGGLVQAGGSLRLSCAASGRIFHRNAMGWYRQAPGKERELVATIRGNGGSTYYADSVKGRFTISRDNAKNTVYLQMNSLKPEDTAVYYCALDAQGYGGWWTYSRFYSWGQGTQVTVSS,high polyreactivity
13,QVQLVESGGGLVQAGGSLRLSCAASGITRGSNAMGWYRQAPGTERELVAAITSGSSTYYADSVKGRFTISRDNAKNTVYLQMNSLKPEDTAVYYCAAEWWDVIAPYEYWGQGTQVTVSS,low polyreactivity
14,QVQLVESGGGLVQAGGSLRLSCAASGSIFVFYAMGWYRQAPGKERELVAAISYRGGSTYADSVKGRFTISRDNEKNTVYLQMNSLKPEDTAVYYCAARGLVRSYDYWGQGTQVTVSS,high polyreactivity
15,QVQHVESGGGLGQAGGSLRLSCAASGGTFQTNAKGCYRQAPGKERELVAGIRWRGGSTYYADSVKGRFTISRDNAKNTVYLQMKSLKPEDTAVYYCAAYYWQGTYDSRRTGWRLMNYWGQGTQVTVSS,high polyreactivity
16,QVQLVESGGGLVQAGGSLRLSCAASGSTSYNAMGWYRQAPGKERELVAAISDGGGSTYYADSVKGRFTISRDNAKNTVYLQMISLKPEDTAVYYCAADTITGDGYWAQGTQVTVSS,low polyreactivity
17,QVQLVESGGGLVQAGGSLRLSCAASGSTFGYYAMGWYRHAPGKERELVAAISWRGGSTYYADSVKGRYTISRDNAKNTVYLQMISLKPEDTAVYYCAAPVGNYGSFDYWGQGTQVTVSS,low polyreactivity
18,QVQLVESGGGLVQAGGSLRLSCAASGRTFASNAMGWYRQAPGKERELVAAISYSGGRTYYADSVKGRFTISRDNAKNTVYLQMNSLKPEDTAVYYCAKVGPVYKYDYWGLGTQVTVSS,high polyreactivity
19,QVQLVESGGGLVQAGGSLRLSCAASGSIFWKYAMGWYRQAPGKERELVAAISWSDGSTYYADSVKGRFTISRDNAKNTVYLQMNSLKPEVTAVYYCNTPPQWLGRYITITFDYWGQGTQVTVSS,low polyreactivity
20,QVQLVESGGGLVQAGGSLRLSCAASGSIFTINTMGWYRPAPGKERELVAAITGSGGITYYADSVKGRFTISRDYAKNTVYLQLNTLKPEDTAVYYCAADYWWTIPEEPQGLGAVDYWGLGTQVTVSS,low polyreactivity
21,QVQLVESGGGLVQAGGSLRISCAASGFTFYRYAMGWYRPAPGKERELVASIRRSDGSTSYADSVKGRFTISRDNAKNTFYLQMNSLKPEDTAVYYCAARYAGSSRYDYWGQGTQVTVSS,high polyreactivity
